# Measurements reported in patent US20170173114A1, “METHODS AND COMPOSITIONS FOR INDUCTION OF UCP1 EXPRESSION” (Joslin Diabetes Center, Inc., priority 2014, published 2017).
# Key:
# Type in all cases: cell-based, murine
# PTGS2 (COX2) = assay: PTGS2 mRNA / COX2 protein expression in WT-1 brown preadipocytes; settings: for PTGS2 mRNA expression relative to the control: 200 ng/mL with insulin and T3, three days
# Protocol: (§1) Total RNA was isolated with QIAzol lysis reagent (Qiagen, Valencia, Calif.) and purified by RNeasy Mini columns (Qiagen) following the manufacture's instructions. cDNA was prepared from total RNA using the Advantage RT-PCR kit (BD Biosciences, Palo Alto, Calif.) according to manufacturer's instructions. Diluted cDNA was used in a PCR reaction with SYBR Green Master Mix (Applied Biosystems, Foster City, Calif.) and primers specifically designed for detection of the gene of interest. PCR reactions were run in duplicate for each sample and quantitated in the ABI Sequence Detection System (Applied Biosystems). Data were expressed as arbitrary units after normalization to levels of expression of internal controls for each sample. Sequences of primers for specific genes are each obtained from the published literature or designed using publically available gene sequence databases. Unless otherwise indicated, gene expression data described in the examples below was obtained using QPCR.
# Cells were harvested in lysis buffer (50 mM HEPES, 137 mM NaCl, 1 mM MgCl2, 1 mM CaCl2, 10 mM Na2P2O7, 10 mM NaF, 2 mM EDTA, 10% glycerol, 1% Igepal CA-630, 2 mM vanadate, 10 μg/ml of leupeptin, 10 μg/ml of aprotinin, 2 mM phenylmethylsulfonyl fluoride; pH 7.4). After lysis, lysates were clarified by centrifugation at 12,000×g for 20 min at 4° C., the amount of protein in the supernatants was determined by the Bradford Protein Assay (Bio-Rad Laboratories, Hercules, Calif.). Proteins were directly solubilized in Laemmli sample buffer. Equal amounts of lysates were separated by sodium dodecyl sulfate-polyacrylamide gel electrophoresis and transferred to Immobolin-P membranes. Membranes were blocked overnight at 4° C. and incubated with the indicated antibody for 2 hours at room temperature. Specifically bound primary antibodies were detected with peroxidase-coupled secondary antibody and enhanced chemiluminescence (ECL, Amersham Biosciences, Piscataway, N.J.).
# To determine if FGF4, FGF5, FGF6, FGF10, FGF16, FGF17, FGF18 or FGF20 induced either UCP1 mRNA or PTGS2 mRNA expression, murine brown preadipocyte WT-1 cells (Tseng et al., Nat. Cell. Biol. (2005) 7(6):601-611) were grown in growth media (DMEM-high glucose+10% FBS) supplemented with FGF4, FGF5, FGF6, FGF10, FGF16, FGF17, FGF18, FGF20 or buffer (control) in combination with insulin (20 nM) and triidothyronine (T3, 1 nM) for three days. All FGFs were used at a dosage of 200 ng/mL. mRNA was isolated and UCP1 and PTGS2 gene expression levels were evaluated by quantitative reverse transcription polymerase chain reaction (Q-RT-PCR) analysis. All experiments were performed triplicate and the data are presented as mean+/−SEM.
# To determine if FGF1 or FGF10 induce UCP1 mRNA expression or PTGS2 mRNA expression, murine brown preadipocyte WT-1 cells (Tseng et al., Nat. Cell. Biol. (2005) 7(6):601-611) were grown in growth media (DMEM-high glucose+10% FBS) supplemented with FGF1, FGF10 or vehicle (control) in combination with insulin (20 nM) and triidothyronine (T3, 1 nM) for three days. FGF1 and FGF10 were used at a dosage of 50 ng/mL, 100 ng/mL or 300 ng/mL. mRNA was isolated and UCP1 and PTGS2 expression levels were evaluated by quantitative reverse transcription polymerase chain reaction (Q-RT-PCR) analysis. All experiments were performed triplicate and the data are presented as mean+/−SEM.
# To test the role of specific prostaglandins (PGs) in activating UCP1 expression, WT-1 brown adipocytes were pretreated with PGE2, PGI2 and FGF6 for 24 hours. mRNA expression levels of UCP1, PTGS2, LDHA, PDK1 and PKM2 were then measured.
# UCP1 = UCP1 mRNA expression (Q-RT-PCR) in WT-1 brown preadipocytes; settings: for expression of UCP1: 200 ng/mL with insulin and T3, three days
# Protocol: as §1
# The effect of FGF6 on differentiation of WT-1 murine brown preadipocytes was also examined. WT-1 cells can be induced to undergo brown adipocyte differentiation, characterized by lipid accumulation and expression of adipogenic and brown fat markers, as described above (Klein et al. (1999) J Biol Chem 274:34795; Tseng et al. (2005) Nat Cell Biol 7:601). WT-1 cells were treated with FGF6 in growth media (DMEM+10% FBS), a vehicle control (“control” or “C” referred to in FIGS. 3A-D), or induction media (“induction” or “I” referred to in FIGS. 3A-D) as described above for seven days. Following the treatment, cells were examined for the color of the culture media in combination with oil Red O staining, expression of adipogenic markers, expression of brown fat markers, immunofluorescent staining of cells with UCP1 and DPAI, and Western blot analysis to determine the presence of UCP1 and β-tubulin. The results are described in FIGS. 3A to 3D.
# UCP1 mRNA expression in brown adipocyte cells was determined at FGF6 concentrations ranging from 0 to 300 ng/ml in the absence of induction cocktail.
# In order to determine the length of time necessary to induce UCP1 expression upon exposure to of cells to FGF6, an experiment was performed whereby FGF6 was administered to brown preadipocytes at a concentration of 200 ng/ml and UCP1 expression was determined. FGF21 and a control were also used in the time course experiment. FGF21, a member of the endocrine FGF ligands that has been implicated in the browning of white fat (Fisher F. M. et al., Genes Dev. 26:271-281, 2012). […] FGF6 could acutely induce a significant increase of UCP1 expression as early as 4 hours after a 200 ng/ml dose, as described in FIG. 4B. At 24 hours, the fold-induction of UCP1 mRNA by FGF6 reached 700-fold higher than the untreated cells, as described in FIG. 4B.
# To assess FGF6's role in the regulation of mitochondrial activity, FGF6 was stably expressed in WT-1 brown preadipocytes and 3T3-F442A white preadipocytes. Stable cells were generated by viral infection followed by drug selection.
# FGF2, FGF6 and FGF9 were used at a dosage of 50 ng/mL, 100 ng/mL, 200 ng/mL or 300 ng/mL. FGF21 was used at the dosage of 50 ng/ml and 500 ng/mL. The concentration of BMP7 was 3.3 nM. RNA was isolated and UCP1 and PPARγ expression levels were evaluated by quantitative reverse transcription polymerase chain reaction (Q-RT-PCR) analysis after 24 hours (i.e., 1 day) (FIG. 14A), 2 days (FIG. 14B), 5 days (FIG. 14C) and 7 days (FIG. 14D) of treatment. All experiments were performed triplicate and the data are presented as mean+/−SEM.
# FGF2, FGF6 and FGF9 were used at a dosage of 200 ng/mL. FGF21 was used at a dosage of 500 ng/mL. The concentration of BMP7 was 3.3 nM. mRNA was isolated and UCP1 and PPARγ expression levels were evaluated by quantitative reverse transcription polymerase chain reaction (Q-RT-PCR) analysis after 24 hours (i.e., 1 day), 2 days, 5 days and 7 days of treatment (FIG. 15). […]
# UCP1 and PTGS2 = UCP1 and PTGS2 mRNA in WT-1 cells undergoing adipocyte differentiation; settings: after induction media; 200 ng/mL FGF or 3.3 nM BMP7, 2 days
# Protocol: In a separate experiment investigating the ability of FGF proteins to induce UCP1 expression in cells undergoing adipocyte differentiation, WT-1 preadipocyte cells were differentiated by culturing in growth media supplemented with insulin (20 nM) and triiodothyronine (T3, 1 nM) for 3 days, followed by incubation in an induction media (growth medium supplemented 20 nM insulin, 1 nM T3, 0.5 mM isobutyl-methylxanthine, 5 μM dexamethasone) for 2 days. The cell were then exposed to BMP7 (3.3 nM) or 200 ng/mL of FGF2, FGF6 or, FGF9 in growth media supplemented with insulin (20 nM) and triodothyronine (T3, 1 nM) for 2 additional days. Cells were harvested and UCP1 and PTGS2 mRNA expression levels were determined according to the quantitative RT-PCR assay described above. Experiments were performed in triplicate and the data presented as mean+/−SEM.
# [1] = 50 ng/mL and 200 ng/mL with insulin and T3, three days
# [2] = FGF21 50 and 500 ng/mL, BMP7 3.3 nM, with insulin and T3
# [3] = 50, 100 or 300 ng/mL with insulin and T3, three days, FGF1 effect at 300 ng/ml
molecule,measurement,setting,value
"FGF17: fibroblast growth factor 17 (protein, listed as Homo sapiens) MGAARLLPNLTLCLQLLILCCQTQGENHPSPNFNQYVRDQGAMTDQLSRRQIREYQLYSRTSGKHVQVTGRRISATAEDGNKFAKLIVETDTFGSRVRIKGAESEKYICMNKRGKLIGKPSGKSKDCVFTEIVLENNYTAFQNARHEGWFMAFTRQGRPRQASRSRQNQREAHFIKRLYQGQLPFPNHAEKQKQFEFVGSAPTRRTKRTRRPQPLT",PTGS2 mRNA expression relative to the control,PTGS2 (COX2),increased
"FGF22: fibroblast growth factor 22 (protein, listed as Homo sapiens) MRRRLWLGLAWLLLARAPDAAGTPSASRGPRSYPHLEGDVRWRRLFSSTHFFLRVDPGGRVQGTRWRHGQDSILEIRSVHVGVVVIKAVSSGFYVAMNRRGRLYGSRLYTVDCRFRERIEENGHNTYASQRWRRRGQPMFLALDRRGGPRPGGRTRRYHLSAHFLPVLVS",UCP1 mRNA expression,UCP1; [1],not detectably induced
"FGF18: fibroblast growth factor 18 (protein, listed as Homo sapiens) MYSAPSACTCLCLHFLLLCFQVQVLVAEENVDFRIHVENQTRARDDVSRKQLRLYQLYSRTSGKHIQVLGRRISARGEDGDKYAQLLVETDTFGSQVRIKGKETEFYLCMNRKGKLVGKPDGTSKECVFIEKVLENNYTALMSAKYSGWYVGFTKKGRPRKGPKTRENQQDVHFMKRYPKGQPELQKPFKYTTVTKRSRRIRPTHPA",PTGS2 mRNA expression relative to the control,PTGS2 (COX2),increased
"FGF5: fibroblast growth factor 5, recombinant human, R&D Systems (protein, listed as Homo sapiens) MSLSFLLLLFFSHLILSAWAHGEKRLAPKGQPGPAATDRNPRGSSSRQSSSSAMSSSSASSSPAASLGSQGSGLEQSSFQWSPSGRRTGSLYCRVGIGFHLQIYPDGKVNGSHEANMLSVLEIFAVSQGIVGIRGVFSNKFLAMSKKGKLHASAKFTDDCKFRERFQENSYNTYASAIHRTEKTGREWYVALNKRGKAKRGCSPRVKPQHISTHFLPRFKQSEQPELSFTVTVPEKKKPPSPIKPKIPLSAPRKNTNSVKYRLKFRFG",expression of UCP1,UCP1,not induced
"BMP7: bone morphogenetic protein 7, rhBMP7 provided by Stryker Regenerative Medicine (protein, UniProt P18075 293-431, looked up) Bone morphogenetic protein 7: STGSKQRSQNRSKTPKNQEALRMANVAENSSSDQRQACKKHELYVSFRDLGWQDWIIAPEGYAAYYCEGECAFPLNSYMNATNHAIVQTLVHFINPETVPKPCCAPTQLNAISVLYFDDSSNVILKKYRNMVVRACGCH",UCP1 expression level at day 7,UCP1; [2],only minimal amounts
same,"UCP1 expression level at days 1, 2 and 5",UCP1; [2],did not express detectable amounts of UCP1
same,PTGS2 mRNA expression in cells undergoing adipocyte differentiation,UCP1 and PTGS2,minimal levels
same,UCP1 mRNA expression in cells undergoing adipocyte differentiation,UCP1 and PTGS2,minimal levels
"FGF4: fibroblast growth factor 4, recombinant human, R&D Systems (protein, listed as Homo sapiens) MSGPGTAAVALLPAVLLALLAPWAGRGGAAAPTAPNGTLEAELERRWESLVALSLARLPVAAQPKEAAVQSGAGDYLLGIKRLRRLYCNVGIGFHLQALPDGRIGGAHADTRDSLLELSPVERGVVSIFGVASRFFVAMSSKGKLYGSPFFTDECTFKEILLPNNYNAYESYKYPGMFIALSKNGKTKKGNRVSPTMKVTHFLPRL",UCP1 mRNA expression,UCP1; [1],high levels of UCP1 mRNA expression
same,PTGS2 mRNA expression relative to the control,PTGS2 (COX2),increased
"FGF10: fibroblast growth factor 10, keratinocyte growth factor 2 (protein, listed as Homo sapiens) MWKWILTHCASAFPHLPGCCCCCFLLLFLVSSVPVTCQALGQDMVSPEATNSSSSSFSSPSSAGRHVRSYNHLQGDVRWRKLFSFTKYFLKIEKNGKVSGTKKENCPYSILEITSVEIGVVAVKAINSNYYLAMNKKGKLYGSKEFNNDCKLKERIEENGYNTYASFNWQHNGRQMYVALNGKGAPRRGQKTRRKNTSAHFLPMVVHS",expression of UCP1,UCP1,not induced
same,UCP1 mRNA expression,UCP1; [3],did not induce expression
same,PTGS2 mRNA expression,PTGS2 (COX2); [3],did not induce expression
